From PMC6404581, “Staphylococcus aureus toxin LukSF dissociates from its membrane receptor target to enable renewed ligand sequestration” (The FASEB Journal, 2018)

B1: G130D leukocidin component F (natural protein, Staphylococcus aureus)
chain: MGSQHITPVSEKKVDDKITLYKTTATSDSDKLKISQILTFNFIKDKSYDKDTLILKAAGNIYSGYTKPNPKDTISSQFYWGSKYNISINSDSNDSVNVVDYAPKNQNEEFQVQQTVGYSYGGDINISNGLSGDGNGSKSFSETINYKQESYRTSLDKRTNFKKIGWDVEAHKIMNNGWGPYGRDSYHSTYGNEMFLGSRQSNLNAGQNFLEYHKMPVLSRGNFNPEFIGVLSRKQNAAKKSKITVTYQREMDRYTNFWNQLHWIGNNYKDENRATHTSIYEVDWENHTVKLIDTQSKEKNPMSAAA
notes: cloning residues before LukF; LukF-PV, S. aureus; they already carry the D (LSGDGNG); residues from the NotI site between LukF and the C-terminal His6; also called F(G130D); LukF mutant G130D LukF; source: E. coli Rosetta-gami 2 (DE3) pLysS, purified (nickel HisTrap, Superdex 75)

Assays:
[1] = biological target: sortase-tagged FITC-labeled human C5a receptor, on HEK cells (human) (UniProt P21730); assay: FRET or BRET; sensitized emission FRET, live sortase-tagged FITC-hC5aR cells (donor) with Cy3 mS* (acceptor), 1 h at +4°C, washed, before addition of mF
sortase-tagged FITC-labeled human C5a receptor, on HEK cells (human), sequence (P21730 whole entry): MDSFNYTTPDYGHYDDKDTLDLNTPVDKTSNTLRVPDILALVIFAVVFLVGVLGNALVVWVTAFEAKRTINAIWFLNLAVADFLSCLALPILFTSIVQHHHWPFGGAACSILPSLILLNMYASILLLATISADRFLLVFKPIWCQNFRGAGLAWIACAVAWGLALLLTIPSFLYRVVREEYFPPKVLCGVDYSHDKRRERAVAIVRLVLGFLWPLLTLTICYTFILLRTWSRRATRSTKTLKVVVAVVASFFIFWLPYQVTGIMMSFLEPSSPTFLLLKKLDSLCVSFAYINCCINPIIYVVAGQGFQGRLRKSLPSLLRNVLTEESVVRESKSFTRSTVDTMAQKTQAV

[2] = biological target: sortase-tagged FITC-labeled human C5a receptor, on HEK cells (human) (UniProt P21730); assay: FRET or BRET; sensitized emission FRET, fixed FITC-hC5aR cells with one Cy3-labeled toxin component alone (Cy3 mS* or only Cy3 mF*), 30 min at 4°C then 10 min at 37°C, washed, fixed, PBS
[3] = biological target: human C5a receptor, endogenous on human polymorphonuclear cells (human (endogenous in PMNs)) (UniProt P21730)
human C5a receptor, endogenous on human polymorphonuclear cells (human (endogenous in PMNs)), sequence (P21730 whole entry): as above

[4] = biological target: T1, wild-type Staphylococcus aureus leukocidin S (Staphylococcus aureus, UniProt O80066 29-312); assay: flow cytometry on cells; details: both partners purified
T1 construct: also called S(wt); LukS; source: E. coli Rosetta-gami 2 (DE3) pLysS, purified (nickel HisTrap, Superdex 75)
T1 sequence: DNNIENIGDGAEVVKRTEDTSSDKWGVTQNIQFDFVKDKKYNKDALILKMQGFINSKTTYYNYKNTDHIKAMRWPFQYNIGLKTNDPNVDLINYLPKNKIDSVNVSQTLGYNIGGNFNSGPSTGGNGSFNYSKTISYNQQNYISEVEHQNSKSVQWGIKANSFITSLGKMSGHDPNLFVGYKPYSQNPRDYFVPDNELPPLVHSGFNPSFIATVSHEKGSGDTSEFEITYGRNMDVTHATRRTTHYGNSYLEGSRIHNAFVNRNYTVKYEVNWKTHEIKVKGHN

Row | Molecule | FRET efficiency [1] [%] | FRET efficiency [2] [%] | toxin concentration at which PMN permeabilization (DAPI uptake, flow cytometry, 30 min) reaches 100%; modified toxins in place of the wild-type ones [3] [nM] | binding result [4]
1 | maleimide-labeled LukS-K281C-Y113H (natural protein) | 75 | 60 | 3 | 
2 | B1 |  |  |  | binds
